This experiment concerns the target human plasma glycoproteins. The experiment can be described thus: far-Western, overlay or dot blot; human or rat plasma diluted 1:10, boiled with LDS sample buffer and 50 mM DTT, separated on 3-8% polyacrylamide gradient gels, transferred to BioTraceNT; GST-SLBR 5 nM in DPBS with 1x Blocking Reagent, 90 min, room temperature; detected with anti-GST.

In turn, “GST-tagged Siglec-like binding region of Hsa, V370F mutant (from UniProt A8AWU7 220-453) (domain or fragment)” showed a fold decrease in total binding against wild type of 3 fold.
